Data on 22 molecules can be found in patent US20180155451A1 (published 2018).

Sequences and labels used below:
B1: GpH7-B3 variant K334_08L/GpL16-k0 (antibody, human IgG1, kappa)
heavy: not shown
light: DIVMTQSPLSLPVTPGEPASISCQASESLVHSNRNTYLHWYLQKPGQSPQLLIYKVSNRFSGVPDRFSGSGSGTDFTLKISRVEAEDVGVYYCSQNTHVPPTFGQGTKVEIERTVAAPSVFIFPPSDEQLKSGTASVVCLLNNFYPREAKVQWKVDNALQSGNSQESVTEQDSKDSTYSLSSTLTLSKADYEKHKVYACEVTHQGLSSPVTKSFNRGEC
notes: homodimerized, mutation in both H chains; also called Ho Ab
B2: GpH7-B3 variant S337_09D/GpL16-k0 (antibody, human IgG1, kappa)
heavy: not shown
light: DIVMTQSPLSLPVTPGEPASISCQASESLVHSNRNTYLHWYLQKPGQSPQLLIYKVSNRFSGVPDRFSGSGSGTDFTLKISRVEAEDVGVYYCSQNTHVPPTFGQGTKVEIERTVAAPSVFIFPPSDEQLKSGTASVVCLLNNFYPREAKVQWKVDNALQSGNSQESVTEQDSKDSTYSLSSTLTLSKADYEKHKVYACEVTHQGLSSPVTKSFNRGEC
notes: as for B1
B3: GpH7-B3 variant K334_16H/GpL16-k0 (antibody, human IgG1, kappa)
heavy: not shown
light: DIVMTQSPLSLPVTPGEPASISCQASESLVHSNRNTYLHWYLQKPGQSPQLLIYKVSNRFSGVPDRFSGSGSGTDFTLKISRVEAEDVGVYYCSQNTHVPPTFGQGTKVEIERTVAAPSVFIFPPSDEQLKSGTASVVCLLNNFYPREAKVQWKVDNALQSGNSQESVTEQDSKDSTYSLSSTLTLSKADYEKHKVYACEVTHQGLSSPVTKSFNRGEC
notes: as for B1
B4: GpH7-B3 variant S324_02A/GpL16-k0 (antibody, human IgG1, kappa)
heavy: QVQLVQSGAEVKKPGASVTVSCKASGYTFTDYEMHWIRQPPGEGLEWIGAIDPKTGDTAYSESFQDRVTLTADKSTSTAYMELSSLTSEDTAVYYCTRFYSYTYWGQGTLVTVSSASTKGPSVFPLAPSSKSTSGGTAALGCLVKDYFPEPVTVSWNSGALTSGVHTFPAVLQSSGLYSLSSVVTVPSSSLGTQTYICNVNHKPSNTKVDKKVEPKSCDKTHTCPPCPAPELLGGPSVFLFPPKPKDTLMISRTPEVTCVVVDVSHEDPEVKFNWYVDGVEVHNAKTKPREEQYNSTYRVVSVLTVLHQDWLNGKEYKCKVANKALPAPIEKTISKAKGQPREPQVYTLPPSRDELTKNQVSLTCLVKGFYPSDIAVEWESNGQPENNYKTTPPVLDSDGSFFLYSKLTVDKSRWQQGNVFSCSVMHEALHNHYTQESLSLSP
light: DIVMTQSPLSLPVTPGEPASISCQASESLVHSNRNTYLHWYLQKPGQSPQLLIYKVSNRFSGVPDRFSGSGSGTDFTLKISRVEAEDVGVYYCSQNTHVPPTFGQGTKVEIERTVAAPSVFIFPPSDEQLKSGTASVVCLLNNFYPREAKVQWKVDNALQSGNSQESVTEQDSKDSTYSLSSTLTLSKADYEKHKVYACEVTHQGLSSPVTKSFNRGEC
notes: as for B1
B5: GpH7-B3 variant T335_13S/GpL16-k0 (antibody, human IgG1, kappa)
heavy: not shown
light: DIVMTQSPLSLPVTPGEPASISCQASESLVHSNRNTYLHWYLQKPGQSPQLLIYKVSNRFSGVPDRFSGSGSGTDFTLKISRVEAEDVGVYYCSQNTHVPPTFGQGTKVEIERTVAAPSVFIFPPSDEQLKSGTASVVCLLNNFYPREAKVQWKVDNALQSGNSQESVTEQDSKDSTYSLSSTLTLSKADYEKHKVYACEVTHQGLSSPVTKSFNRGEC
notes: as for B1
B6: GpH7-B3 variant Y296_18N/GpL16-k0 (antibody, human IgG1, kappa)
heavy: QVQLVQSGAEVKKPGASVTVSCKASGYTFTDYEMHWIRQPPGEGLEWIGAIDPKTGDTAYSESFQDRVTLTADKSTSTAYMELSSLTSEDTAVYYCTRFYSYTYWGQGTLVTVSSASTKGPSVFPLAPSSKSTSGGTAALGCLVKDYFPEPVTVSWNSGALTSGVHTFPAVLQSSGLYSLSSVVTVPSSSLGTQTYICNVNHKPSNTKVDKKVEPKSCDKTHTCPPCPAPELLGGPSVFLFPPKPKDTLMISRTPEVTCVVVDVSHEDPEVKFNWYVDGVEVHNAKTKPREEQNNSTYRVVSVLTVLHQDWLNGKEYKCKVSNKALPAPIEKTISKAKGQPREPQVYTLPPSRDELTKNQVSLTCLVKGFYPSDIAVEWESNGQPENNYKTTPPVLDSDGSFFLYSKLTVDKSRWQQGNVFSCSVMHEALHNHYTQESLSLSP
light: DIVMTQSPLSLPVTPGEPASISCQASESLVHSNRNTYLHWYLQKPGQSPQLLIYKVSNRFSGVPDRFSGSGSGTDFTLKISRVEAEDVGVYYCSQNTHVPPTFGQGTKVEIERTVAAPSVFIFPPSDEQLKSGTASVVCLLNNFYPREAKVQWKVDNALQSGNSQESVTEQDSKDSTYSLSSTLTLSKADYEKHKVYACEVTHQGLSSPVTKSFNRGEC
notes: as for B1
B7: GpH7-B3 variant T335_07I/GpL16-k0 (antibody, human IgG1, kappa)
heavy: not shown
light: DIVMTQSPLSLPVTPGEPASISCQASESLVHSNRNTYLHWYLQKPGQSPQLLIYKVSNRFSGVPDRFSGSGSGTDFTLKISRVEAEDVGVYYCSQNTHVPPTFGQGTKVEIERTVAAPSVFIFPPSDEQLKSGTASVVCLLNNFYPREAKVQWKVDNALQSGNSQESVTEQDSKDSTYSLSSTLTLSKADYEKHKVYACEVTHQGLSSPVTKSFNRGEC
notes: as for B1
B8: GpH7-B3 variant T335_10E/GpL16-k0 (antibody, human IgG1, kappa)
heavy: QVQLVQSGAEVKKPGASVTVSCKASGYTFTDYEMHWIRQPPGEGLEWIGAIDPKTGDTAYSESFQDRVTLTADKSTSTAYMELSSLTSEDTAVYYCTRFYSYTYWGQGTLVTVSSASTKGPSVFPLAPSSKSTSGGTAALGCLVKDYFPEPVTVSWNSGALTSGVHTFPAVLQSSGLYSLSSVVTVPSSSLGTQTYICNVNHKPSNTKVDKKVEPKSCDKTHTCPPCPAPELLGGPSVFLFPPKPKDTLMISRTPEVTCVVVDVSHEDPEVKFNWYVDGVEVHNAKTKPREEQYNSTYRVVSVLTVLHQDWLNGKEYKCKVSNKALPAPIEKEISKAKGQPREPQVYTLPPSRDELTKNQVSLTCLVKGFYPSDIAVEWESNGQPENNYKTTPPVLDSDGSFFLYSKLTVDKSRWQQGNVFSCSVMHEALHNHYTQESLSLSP
light: DIVMTQSPLSLPVTPGEPASISCQASESLVHSNRNTYLHWYLQKPGQSPQLLIYKVSNRFSGVPDRFSGSGSGTDFTLKISRVEAEDVGVYYCSQNTHVPPTFGQGTKVEIERTVAAPSVFIFPPSDEQLKSGTASVVCLLNNFYPREAKVQWKVDNALQSGNSQESVTEQDSKDSTYSLSSTLTLSKADYEKHKVYACEVTHQGLSSPVTKSFNRGEC
notes: as for B1
B9: GpH7-B3 variant L235_20W/GpL16-k0 (antibody, human IgG1, kappa)
heavy: not shown
light: DIVMTQSPLSLPVTPGEPASISCQASESLVHSNRNTYLHWYLQKPGQSPQLLIYKVSNRFSGVPDRFSGSGSGTDFTLKISRVEAEDVGVYYCSQNTHVPPTFGQGTKVEIERTVAAPSVFIFPPSDEQLKSGTASVVCLLNNFYPREAKVQWKVDNALQSGNSQESVTEQDSKDSTYSLSSTLTLSKADYEKHKVYACEVTHQGLSSPVTKSFNRGEC
notes: as for B1
B10: GpH7-B3 variant T335_19Q/GpL16-k0 (antibody, human IgG1, kappa)
heavy: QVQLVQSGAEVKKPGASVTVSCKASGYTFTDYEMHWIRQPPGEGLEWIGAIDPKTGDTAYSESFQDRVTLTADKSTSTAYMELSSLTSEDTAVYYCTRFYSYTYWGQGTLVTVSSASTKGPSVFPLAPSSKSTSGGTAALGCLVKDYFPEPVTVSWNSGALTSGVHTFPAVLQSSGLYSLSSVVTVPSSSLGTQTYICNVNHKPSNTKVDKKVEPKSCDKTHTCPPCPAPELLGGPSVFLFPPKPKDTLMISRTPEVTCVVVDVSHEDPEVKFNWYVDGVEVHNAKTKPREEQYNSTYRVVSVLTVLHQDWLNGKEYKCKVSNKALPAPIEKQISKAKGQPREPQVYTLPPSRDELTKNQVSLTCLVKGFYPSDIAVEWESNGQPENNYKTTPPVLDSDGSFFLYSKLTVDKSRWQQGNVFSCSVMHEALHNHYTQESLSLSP
light: DIVMTQSPLSLPVTPGEPASISCQASESLVHSNRNTYLHWYLQKPGQSPQLLIYKVSNRFSGVPDRFSGSGSGTDFTLKISRVEAEDVGVYYCSQNTHVPPTFGQGTKVEIERTVAAPSVFIFPPSDEQLKSGTASVVCLLNNFYPREAKVQWKVDNALQSGNSQESVTEQDSKDSTYSLSSTLTLSKADYEKHKVYACEVTHQGLSSPVTKSFNRGEC
notes: as for B1
B11: GpH7-B3 variant T335_16H/GpL16-k0 (antibody, human IgG1, kappa)
heavy: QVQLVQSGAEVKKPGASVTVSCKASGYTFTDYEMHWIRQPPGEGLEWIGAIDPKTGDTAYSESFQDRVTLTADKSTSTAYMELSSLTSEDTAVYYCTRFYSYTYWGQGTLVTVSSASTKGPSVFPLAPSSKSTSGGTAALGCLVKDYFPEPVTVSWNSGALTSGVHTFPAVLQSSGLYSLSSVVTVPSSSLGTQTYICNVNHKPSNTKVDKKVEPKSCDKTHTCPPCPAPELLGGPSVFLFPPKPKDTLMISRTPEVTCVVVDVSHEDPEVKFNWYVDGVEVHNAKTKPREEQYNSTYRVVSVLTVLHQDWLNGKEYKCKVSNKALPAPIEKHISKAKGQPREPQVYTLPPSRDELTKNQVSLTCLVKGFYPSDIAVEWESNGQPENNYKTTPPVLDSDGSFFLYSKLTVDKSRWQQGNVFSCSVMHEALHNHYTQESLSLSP
light: DIVMTQSPLSLPVTPGEPASISCQASESLVHSNRNTYLHWYLQKPGQSPQLLIYKVSNRFSGVPDRFSGSGSGTDFTLKISRVEAEDVGVYYCSQNTHVPPTFGQGTKVEIERTVAAPSVFIFPPSDEQLKSGTASVVCLLNNFYPREAKVQWKVDNALQSGNSQESVTEQDSKDSTYSLSSTLTLSKADYEKHKVYACEVTHQGLSSPVTKSFNRGEC
notes: as for B1
B12: GpH7-B3 variant S267_02A/GpL16-k0 (antibody, human IgG1, kappa)
heavy: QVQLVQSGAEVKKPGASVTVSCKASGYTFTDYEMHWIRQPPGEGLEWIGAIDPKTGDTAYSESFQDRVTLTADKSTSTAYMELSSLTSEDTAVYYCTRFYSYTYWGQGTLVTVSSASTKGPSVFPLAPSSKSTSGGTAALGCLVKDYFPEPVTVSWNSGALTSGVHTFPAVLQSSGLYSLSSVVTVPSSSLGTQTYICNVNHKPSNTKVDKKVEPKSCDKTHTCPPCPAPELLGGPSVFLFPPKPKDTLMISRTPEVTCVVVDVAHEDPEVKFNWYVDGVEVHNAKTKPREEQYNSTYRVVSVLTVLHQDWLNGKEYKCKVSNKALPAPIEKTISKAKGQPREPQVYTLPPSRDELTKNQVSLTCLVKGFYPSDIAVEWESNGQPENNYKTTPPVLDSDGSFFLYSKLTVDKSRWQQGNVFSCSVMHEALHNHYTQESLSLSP
light: DIVMTQSPLSLPVTPGEPASISCQASESLVHSNRNTYLHWYLQKPGQSPQLLIYKVSNRFSGVPDRFSGSGSGTDFTLKISRVEAEDVGVYYCSQNTHVPPTFGQGTKVEIERTVAAPSVFIFPPSDEQLKSGTASVVCLLNNFYPREAKVQWKVDNALQSGNSQESVTEQDSKDSTYSLSSTLTLSKADYEKHKVYACEVTHQGLSSPVTKSFNRGEC
notes: as for B1
B13: GpH7-B3 variant L328_20W/GpL16-k0 (antibody, human IgG1, kappa)
heavy: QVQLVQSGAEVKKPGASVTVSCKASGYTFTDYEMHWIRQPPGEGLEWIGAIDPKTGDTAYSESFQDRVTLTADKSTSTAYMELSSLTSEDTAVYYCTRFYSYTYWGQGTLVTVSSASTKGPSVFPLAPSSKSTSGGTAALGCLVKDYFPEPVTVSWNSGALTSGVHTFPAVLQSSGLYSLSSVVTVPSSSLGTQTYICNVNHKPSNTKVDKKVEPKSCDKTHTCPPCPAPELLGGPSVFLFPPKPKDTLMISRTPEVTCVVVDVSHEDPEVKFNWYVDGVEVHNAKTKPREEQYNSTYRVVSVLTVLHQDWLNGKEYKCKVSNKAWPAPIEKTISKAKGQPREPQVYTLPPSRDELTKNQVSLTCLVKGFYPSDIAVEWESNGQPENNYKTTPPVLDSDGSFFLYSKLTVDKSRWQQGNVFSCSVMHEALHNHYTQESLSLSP
light: DIVMTQSPLSLPVTPGEPASISCQASESLVHSNRNTYLHWYLQKPGQSPQLLIYKVSNRFSGVPDRFSGSGSGTDFTLKISRVEAEDVGVYYCSQNTHVPPTFGQGTKVEIERTVAAPSVFIFPPSDEQLKSGTASVVCLLNNFYPREAKVQWKVDNALQSGNSQESVTEQDSKDSTYSLSSTLTLSKADYEKHKVYACEVTHQGLSSPVTKSFNRGEC
notes: as for B1
B14: GpH7-B3 variant L235_04F/GpL16-k0 (antibody, human IgG1, kappa)
heavy: not shown
light: DIVMTQSPLSLPVTPGEPASISCQASESLVHSNRNTYLHWYLQKPGQSPQLLIYKVSNRFSGVPDRFSGSGSGTDFTLKISRVEAEDVGVYYCSQNTHVPPTFGQGTKVEIERTVAAPSVFIFPPSDEQLKSGTASVVCLLNNFYPREAKVQWKVDNALQSGNSQESVTEQDSKDSTYSLSSTLTLSKADYEKHKVYACEVTHQGLSSPVTKSFNRGEC
notes: as for B1
B15: GpH7-B3 variant L328_06M/GpL16-k0 (antibody, human IgG1, kappa)
heavy: not shown
light: DIVMTQSPLSLPVTPGEPASISCQASESLVHSNRNTYLHWYLQKPGQSPQLLIYKVSNRFSGVPDRFSGSGSGTDFTLKISRVEAEDVGVYYCSQNTHVPPTFGQGTKVEIERTVAAPSVFIFPPSDEQLKSGTASVVCLLNNFYPREAKVQWKVDNALQSGNSQESVTEQDSKDSTYSLSSTLTLSKADYEKHKVYACEVTHQGLSSPVTKSFNRGEC
notes: as for B1
B16: GpH7-B3 variant V266_07I/GpL16-k0 (antibody, human IgG1, kappa)
heavy: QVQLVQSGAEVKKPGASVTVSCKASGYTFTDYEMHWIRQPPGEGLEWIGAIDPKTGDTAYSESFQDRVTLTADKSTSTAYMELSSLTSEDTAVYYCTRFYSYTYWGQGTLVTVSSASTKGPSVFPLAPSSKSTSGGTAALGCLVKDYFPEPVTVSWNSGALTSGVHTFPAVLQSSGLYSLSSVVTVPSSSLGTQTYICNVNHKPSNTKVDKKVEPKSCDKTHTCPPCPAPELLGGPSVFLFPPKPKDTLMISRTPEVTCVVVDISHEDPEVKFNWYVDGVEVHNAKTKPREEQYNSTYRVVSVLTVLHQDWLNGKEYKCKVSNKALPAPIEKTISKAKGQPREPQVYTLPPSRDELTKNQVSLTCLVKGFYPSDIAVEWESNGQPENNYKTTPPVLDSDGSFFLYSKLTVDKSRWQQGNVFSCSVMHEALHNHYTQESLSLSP
light: DIVMTQSPLSLPVTPGEPASISCQASESLVHSNRNTYLHWYLQKPGQSPQLLIYKVSNRFSGVPDRFSGSGSGTDFTLKISRVEAEDVGVYYCSQNTHVPPTFGQGTKVEIERTVAAPSVFIFPPSDEQLKSGTASVVCLLNNFYPREAKVQWKVDNALQSGNSQESVTEQDSKDSTYSLSSTLTLSKADYEKHKVYACEVTHQGLSSPVTKSFNRGEC
notes: as for B1
B17: GpH7-B3 variant S337_10E/GpL16-k0 (antibody, human IgG1, kappa)
heavy: not shown
light: DIVMTQSPLSLPVTPGEPASISCQASESLVHSNRNTYLHWYLQKPGQSPQLLIYKVSNRFSGVPDRFSGSGSGTDFTLKISRVEAEDVGVYYCSQNTHVPPTFGQGTKVEIERTVAAPSVFIFPPSDEQLKSGTASVVCLLNNFYPREAKVQWKVDNALQSGNSQESVTEQDSKDSTYSLSSTLTLSKADYEKHKVYACEVTHQGLSSPVTKSFNRGEC
notes: as for B1
B18: GpH7-B3 variant S239_09D/GpL16-k0 (antibody, human IgG1, kappa)
heavy: not shown
light: DIVMTQSPLSLPVTPGEPASISCQASESLVHSNRNTYLHWYLQKPGQSPQLLIYKVSNRFSGVPDRFSGSGSGTDFTLKISRVEAEDVGVYYCSQNTHVPPTFGQGTKVEIERTVAAPSVFIFPPSDEQLKSGTASVVCLLNNFYPREAKVQWKVDNALQSGNSQESVTEQDSKDSTYSLSSTLTLSKADYEKHKVYACEVTHQGLSSPVTKSFNRGEC
notes: as for B1
B19: GpH7-B3 variant L328_14T/GpL16-k0 (antibody, human IgG1, kappa)
heavy: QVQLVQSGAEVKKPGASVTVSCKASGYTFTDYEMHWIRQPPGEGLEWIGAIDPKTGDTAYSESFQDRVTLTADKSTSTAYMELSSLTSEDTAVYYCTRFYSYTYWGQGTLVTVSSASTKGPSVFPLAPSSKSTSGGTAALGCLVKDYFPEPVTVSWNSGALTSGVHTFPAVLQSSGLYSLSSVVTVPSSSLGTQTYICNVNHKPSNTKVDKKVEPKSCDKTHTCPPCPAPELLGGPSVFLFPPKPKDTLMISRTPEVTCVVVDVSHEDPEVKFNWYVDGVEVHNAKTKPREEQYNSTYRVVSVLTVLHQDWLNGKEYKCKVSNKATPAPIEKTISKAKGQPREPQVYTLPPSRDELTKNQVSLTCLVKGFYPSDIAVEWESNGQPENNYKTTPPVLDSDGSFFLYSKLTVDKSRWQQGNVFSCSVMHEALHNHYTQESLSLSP
light: DIVMTQSPLSLPVTPGEPASISCQASESLVHSNRNTYLHWYLQKPGQSPQLLIYKVSNRFSGVPDRFSGSGSGTDFTLKISRVEAEDVGVYYCSQNTHVPPTFGQGTKVEIERTVAAPSVFIFPPSDEQLKSGTASVVCLLNNFYPREAKVQWKVDNALQSGNSQESVTEQDSKDSTYSLSSTLTLSKADYEKHKVYACEVTHQGLSSPVTKSFNRGEC
notes: as for B1
B20: GpH7-B3 variant T335_01G/GpL16-k0 (antibody, human IgG1, kappa)
heavy: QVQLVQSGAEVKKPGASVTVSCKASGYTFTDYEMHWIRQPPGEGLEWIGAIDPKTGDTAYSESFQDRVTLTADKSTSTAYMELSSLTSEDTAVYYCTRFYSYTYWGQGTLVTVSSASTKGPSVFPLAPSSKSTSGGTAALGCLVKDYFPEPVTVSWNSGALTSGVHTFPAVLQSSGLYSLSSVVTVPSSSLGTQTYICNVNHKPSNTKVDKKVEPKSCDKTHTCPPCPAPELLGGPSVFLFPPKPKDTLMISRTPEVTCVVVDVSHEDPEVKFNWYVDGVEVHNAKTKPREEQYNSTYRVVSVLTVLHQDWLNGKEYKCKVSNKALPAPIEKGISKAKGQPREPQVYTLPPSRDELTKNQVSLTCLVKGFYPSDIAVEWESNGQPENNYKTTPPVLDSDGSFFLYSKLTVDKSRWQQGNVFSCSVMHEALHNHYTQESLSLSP
light: DIVMTQSPLSLPVTPGEPASISCQASESLVHSNRNTYLHWYLQKPGQSPQLLIYKVSNRFSGVPDRFSGSGSGTDFTLKISRVEAEDVGVYYCSQNTHVPPTFGQGTKVEIERTVAAPSVFIFPPSDEQLKSGTASVVCLLNNFYPREAKVQWKVDNALQSGNSQESVTEQDSKDSTYSLSSTLTLSKADYEKHKVYACEVTHQGLSSPVTKSFNRGEC
notes: as for B1
B21: GpH7-B3 variant L235_15Y/GpL16-k0 (antibody, human IgG1, kappa)
heavy: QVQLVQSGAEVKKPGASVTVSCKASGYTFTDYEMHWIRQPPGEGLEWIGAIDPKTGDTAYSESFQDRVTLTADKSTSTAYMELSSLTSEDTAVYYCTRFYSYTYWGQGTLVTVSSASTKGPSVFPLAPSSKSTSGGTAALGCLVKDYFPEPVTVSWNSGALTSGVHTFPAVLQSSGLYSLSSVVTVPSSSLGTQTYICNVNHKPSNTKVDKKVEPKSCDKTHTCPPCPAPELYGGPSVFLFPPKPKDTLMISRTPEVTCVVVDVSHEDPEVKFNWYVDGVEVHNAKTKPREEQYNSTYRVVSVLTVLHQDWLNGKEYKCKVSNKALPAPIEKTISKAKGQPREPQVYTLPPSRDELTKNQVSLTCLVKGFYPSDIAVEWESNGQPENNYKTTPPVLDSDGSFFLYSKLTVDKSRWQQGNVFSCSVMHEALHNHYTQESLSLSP
light: DIVMTQSPLSLPVTPGEPASISCQASESLVHSNRNTYLHWYLQKPGQSPQLLIYKVSNRFSGVPDRFSGSGSGTDFTLKISRVEAEDVGVYYCSQNTHVPPTFGQGTKVEIERTVAAPSVFIFPPSDEQLKSGTASVVCLLNNFYPREAKVQWKVDNALQSGNSQESVTEQDSKDSTYSLSSTLTLSKADYEKHKVYACEVTHQGLSSPVTKSFNRGEC
notes: as for B1
B22: GpH7-B3 variant T335_15Y/GpL16-k0 (antibody, human IgG1, kappa)
heavy: not shown
light: DIVMTQSPLSLPVTPGEPASISCQASESLVHSNRNTYLHWYLQKPGQSPQLLIYKVSNRFSGVPDRFSGSGSGTDFTLKISRVEAEDVGVYYCSQNTHVPPTFGQGTKVEIERTVAAPSVFIFPPSDEQLKSGTASVVCLLNNFYPREAKVQWKVDNALQSGNSQESVTEQDSKDSTYSLSSTLTLSKADYEKHKVYACEVTHQGLSSPVTKSFNRGEC
notes: as for B1

In the test the target is FcγRIIa H (human FcγRIIa, allotype with His at position 131), extracellular domain with C-terminal His tag (human, UniProt P12318 34-217). As to the kind of experiment: SPR (Biacore), antibody captured on antigen peptide chip, FcγR as analyte; relative to HoCon Ab GpH7-B3/GpL16-k0 = 100. For orientation: SPR reads the build-up and loss of mass on a sensor chip optically.
In the case of B1, the Ho/Con_2aH was found to be 103 control = 100. Molecule B2 returned a Ho/Con_2aH of 107 control = 100.

With B3, the Ho/Con_2aH worked out at 101 control = 100. Molecule B4 registered a Ho/Con_2aH of 102 control = 100. In turn, B5 yielded a Ho/Con_2aH of 101 control = 100. In turn, B6 had a Ho/Con_2aH of 100 control = 100. Consider B7, for which the Ho/Con_2aH came to 105 control = 100.

B8 came in with a Ho/Con_2aH of 105 control = 100. With B9, the Ho/Con_2aH is 112 control = 100. Molecule B10 yielded a Ho/Con_2aH of 103 control = 100. The same measure for B11: 100 control = 100.

Consider B12, for which the Ho/Con_2aH stood at 120 control = 100. As to B13, the Ho/Con_2aH was 112 control = 100. B14 came in with a Ho/Con_2aH of 101 control = 100. The same measure for B15: 100 control = 100. In turn, B16 had a Ho/Con_2aH of 104 control = 100. The molecule B17 had a Ho/Con_2aH of 101 control = 100.

Take B18: the Ho/Con_2aH amounted to 112 control = 100. On to B19, for which the Ho/Con_2aH came out at 110 control = 100. Take B20: the Ho/Con_2aH was 101 control = 100. B21: the Ho/Con_2aH was found to be 107 control = 100.

As to B22, the Ho/Con_2aH came out at 102 control = 100.
